From patent EP1942187B1

Columns and labels:
Assay in all cases: cell-based or functional assay
[1] = target: IL10Rb (CRF2-4) (human) (UniProt Q08334)
[2] = target: human zcytor19 (human)
[3] = target: zcytoR19 and IL10Rb (CRF2-4) coexpressed on BHK cells (human)

Chain of IL10Rb (CRF2-4) (human) (Q08334 20-325 limits assumed, form in doubt): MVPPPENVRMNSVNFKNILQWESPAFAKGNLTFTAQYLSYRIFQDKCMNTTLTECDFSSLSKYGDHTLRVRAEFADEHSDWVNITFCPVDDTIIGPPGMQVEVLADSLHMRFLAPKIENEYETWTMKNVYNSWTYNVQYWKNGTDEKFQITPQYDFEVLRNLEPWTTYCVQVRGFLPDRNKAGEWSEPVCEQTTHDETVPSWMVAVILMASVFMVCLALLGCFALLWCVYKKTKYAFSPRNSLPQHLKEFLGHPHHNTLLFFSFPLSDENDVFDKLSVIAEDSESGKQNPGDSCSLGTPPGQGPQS

zcyto20 (ligand)
ISRE-luciferase fold induction; wild-type 293 cells; Zcyto20 0.01 ng/ml; + IL10Rb neutralizing antibody (8 ug/ml) (fold induction) [1]: 0.8 | ISRE-luciferase fold induction; wild-type 293 cells; Zcyto20 0.01 ng/ml; no antibody (fold induction) [1]: 1 | ISRE-luciferase fold induction; wild-type 293 cells; Zcyto20 0.1 ng/ml; + IL10Rb neutralizing antibody (8 ug/ml) (fold induction) [1]: 1 | ISRE-luciferase fold induction; wild-type 293 cells; Zcyto20 0.1 ng/ml; no antibody (fold induction) [1]: 1 | ISRE-luciferase fold induction; wild-type 293 cells; Zcyto20 1 ng/ml; + IL10Rb neutralizing antibody (8 ug/ml) (fold induction) [1]: 0.9 | ISRE-luciferase fold induction; wild-type 293 cells; Zcyto20 1 ng/ml; no antibody (fold induction) [1]: 1 | ISRE-luciferase fold induction; wild-type 293 cells; Zcyto20 10 ng/ml; + IL10Rb neutralizing antibody (8 ug/ml) (fold induction) [1]: 0.9 | ISRE-luciferase fold induction; wild-type 293 cells; Zcyto20 10 ng/ml; no antibody (fold induction) [1]: 4 | ISRE-luciferase fold induction; wild-type 293 cells; Zcyto20 100 ng/ml; + IL10Rb neutralizing antibody (8 ug/ml) (fold induction) [1]: 0.8 | ISRE-luciferase fold induction; wild-type 293 cells; Zcyto20 100 ng/ml; no antibody (fold induction) [1]: 8.4 | ISRE-luciferase fold induction; zcytoR19-overexpressing 293 cells; Zcyto20 0.01 ng/ml; + IL10Rb neutralizing antibody (8 ug/ml) (fold induction) [1]: 1.2 | ISRE-luciferase fold induction; zcytoR19-overexpressing 293 cells; Zcyto20 0.01 ng/ml; no antibody (fold induction) [1]: 1.1 | ISRE-luciferase fold induction; zcytoR19-overexpressing 293 cells; Zcyto20 0.1 ng/ml; + IL10Rb neutralizing antibody (8 ug/ml) (fold induction) [1]: 1.1 | ISRE-luciferase fold induction; zcytoR19-overexpressing 293 cells; Zcyto20 0.1 ng/ml; no antibody (fold induction) [1]: 6 | ISRE-luciferase fold induction; zcytoR19-overexpressing 293 cells; Zcyto20 1 ng/ml; + IL10Rb neutralizing antibody (8 ug/ml) (fold induction) [1]: 1.3 | ISRE-luciferase fold induction; zcytoR19-overexpressing 293 cells; Zcyto20 1 ng/ml; no antibody (fold induction) [1]: 68 | ISRE-luciferase fold induction; zcytoR19-overexpressing 293 cells; Zcyto20 10 ng/ml; + IL10Rb neutralizing antibody (8 ug/ml) (fold induction) [1]: 23 | ISRE-luciferase fold induction; zcytoR19-overexpressing 293 cells; Zcyto20 10 ng/ml; no antibody (fold induction) [1]: 97 | ISRE-luciferase fold induction; zcytoR19-overexpressing 293 cells; Zcyto20 100 ng/ml; + IL10Rb neutralizing antibody (8 ug/ml) (fold induction) [1]: 60 | ISRE-luciferase fold induction; zcytoR19-overexpressing 293 cells; Zcyto20 100 ng/ml; no antibody (fold induction) [1]: 91 | ISRE-luciferase fold induction; 293 cells transfected with ISRE-Luc./Zcytor19; Zcyto20 125ng/ml (fold induction) [2]: 125 | ISRE-luciferase fold induction; BHK cells transfected with zcytoR19 alone; zcyto20 0.001 ng/ml (fold induction) [2]: 1.4 | ISRE-luciferase fold induction; BHK cells transfected with zcytoR19 alone; zcyto20 0.01 ng/ml (fold induction) [2]: 1.2 | ISRE-luciferase fold induction; BHK cells transfected with zcytoR19 alone; zcyto20 0.1 ng/ml (fold induction) [2]: 1.25 | ISRE-luciferase fold induction; BHK cells transfected with zcytoR19 alone; zcyto20 1 ng/ml (fold induction) [2]: 1.3 | ISRE-luciferase fold induction; BHK cells transfected with zcytoR19 alone; zcyto20 10 ng/ml (fold induction) [2]: 2.1 | ISRE-luciferase fold induction; BHK cells transfected with zcytoR19 alone; zcyto20 100 ng/ml (fold induction) [2]: 2.2 | ISRE-luciferase fold induction; BHK cells transfected with zcytoR19 alone; zcyto20 1000 ng/ml (fold induction) [2]: 2.25 | ISRE-luciferase fold induction; BHK cells transfected with zcytoR19 and IL10Rb (CRF2-4); zcyto20 0.001 ng/ml (fold induction) [3]: 1.5 | ISRE-luciferase fold induction; BHK cells transfected with zcytoR19 and IL10Rb (CRF2-4); zcyto20 0.01 ng/ml (fold induction) [3]: 1.6 | ISRE-luciferase fold induction; BHK cells transfected with zcytoR19 and IL10Rb (CRF2-4); zcyto20 0.1 ng/ml (fold induction) [3]: 2.1 | ISRE-luciferase fold induction; BHK cells transfected with zcytoR19 and IL10Rb (CRF2-4); zcyto20 1 ng/ml (fold induction) [3]: 2.5 | ISRE-luciferase fold induction; BHK cells transfected with zcytoR19 and IL10Rb (CRF2-4); zcyto20 10 ng/ml (fold induction) [3]: 2.4 | ISRE-luciferase fold induction; BHK cells transfected with zcytoR19 and IL10Rb (CRF2-4); zcyto20 100 ng/ml (fold induction) [3]: 2.6 | ISRE-luciferase fold induction; BHK cells transfected with zcytoR19 and IL10Rb (CRF2-4); zcyto20 1000 ng/ml (fold induction) [3]: 2.1

zcyto20-CEE (ligand)
Optical Density (570nm), MTT, EMCV-infected HuzcytoR19-overexpressing 293 cells; Zcyto20-CEE 0.5 ng/ml; Anti-IL10Rb 5 ug/ml [1]: 0.95 OD 570nm | Optical Density (570nm), MTT, EMCV-infected HuzcytoR19-overexpressing 293 cells; Zcyto20-CEE 0.5 ng/ml; Anti-LeptinR 5 ug/ml (control antibody) [1]: 0.24 OD 570nm | Optical Density (570nm), MTT, EMCV-infected wild-type 293 cells; Zcyto20-CEE 200 ng/ml; Anti-IL10Rb 5 ug/ml [1]: 0.94 OD 570nm | Optical Density (570nm), MTT, EMCV-infected wild-type 293 cells; Zcyto20-CEE 200 ng/ml; Anti-LeptinR 5 ug/ml (control antibody) [1]: 0.88 OD 570nm

zcyto21 (from UniProt Q8IU54 20-200) (ligand)
ISRE-luciferase fold induction; wild-type 293 cells; Zcyto21 0.001 ng/ml; + IL10Rb neutralizing antibody (2.5 ug/ml) (fold induction) [1]: 1.3 | ISRE-luciferase fold induction; wild-type 293 cells; Zcyto21 0.001 ng/ml; no antibody (fold induction) [1]: 1.2 | ISRE-luciferase fold induction; wild-type 293 cells; Zcyto21 0.01 ng/ml; + IL10Rb neutralizing antibody (2.5 ug/ml) (fold induction) [1]: 1.3 | ISRE-luciferase fold induction; wild-type 293 cells; Zcyto21 0.01 ng/ml; no antibody (fold induction) [1]: 1.2 | ISRE-luciferase fold induction; wild-type 293 cells; Zcyto21 0.1 ng/ml; + IL10Rb neutralizing antibody (2.5 ug/ml) (fold induction) [1]: 1.3 | ISRE-luciferase fold induction; wild-type 293 cells; Zcyto21 0.1 ng/ml; no antibody (fold induction) [1]: 1.1 | ISRE-luciferase fold induction; wild-type 293 cells; Zcyto21 1 ng/ml; + IL10Rb neutralizing antibody (2.5 ug/ml) (fold induction) [1]: 1.3 | ISRE-luciferase fold induction; wild-type 293 cells; Zcyto21 1 ng/ml; no antibody (fold induction) [1]: 1.5 | ISRE-luciferase fold induction; wild-type 293 cells; Zcyto21 10 ng/ml; + IL10Rb neutralizing antibody (2.5 ug/ml) (fold induction) [1]: 1.4 | ISRE-luciferase fold induction; wild-type 293 cells; Zcyto21 10 ng/ml; no antibody (fold induction) [1]: 3.2 | ISRE-luciferase fold induction; wild-type 293 cells; Zcyto21 100 ng/ml; + IL10Rb neutralizing antibody (2.5 ug/ml) (fold induction) [1]: 1.8 | ISRE-luciferase fold induction; wild-type 293 cells; Zcyto21 100 ng/ml; no antibody (fold induction) [1]: 4.1 | ISRE-luciferase fold induction; zcytoR19-overexpressing 293 cells; Zcyto21 0.001 ng/ml; + IL10Rb neutralizing antibody (2.5 ug/ml) (fold induction) [1]: 1 | ISRE-luciferase fold induction; zcytoR19-overexpressing 293 cells; Zcyto21 0.001 ng/ml; no antibody (fold induction) [1]: 1.1 | ISRE-luciferase fold induction; zcytoR19-overexpressing 293 cells; Zcyto21 0.01 ng/ml; + IL10Rb neutralizing antibody (2.5 ug/ml) (fold induction) [1]: 1.1 | ISRE-luciferase fold induction; zcytoR19-overexpressing 293 cells; Zcyto21 0.01 ng/ml; no antibody (fold induction) [1]: 3.5 | ISRE-luciferase fold induction; zcytoR19-overexpressing 293 cells; Zcyto21 0.1 ng/ml; + IL10Rb neutralizing antibody (2.5 ug/ml) (fold induction) [1]: 1 | ISRE-luciferase fold induction; zcytoR19-overexpressing 293 cells; Zcyto21 0.1 ng/ml; no antibody (fold induction) [1]: 1.5 | ISRE-luciferase fold induction; zcytoR19-overexpressing 293 cells; Zcyto21 1 ng/ml; + IL10Rb neutralizing antibody (2.5 ug/ml) (fold induction) [1]: 5.8 | ISRE-luciferase fold induction; zcytoR19-overexpressing 293 cells; Zcyto21 1 ng/ml; no antibody (fold induction) [1]: 35 | ISRE-luciferase fold induction; zcytoR19-overexpressing 293 cells; Zcyto21 10 ng/ml; + IL10Rb neutralizing antibody (2.5 ug/ml) (fold induction) [1]: 28 | ISRE-luciferase fold induction; zcytoR19-overexpressing 293 cells; Zcyto21 10 ng/ml; no antibody (fold induction) [1]: 48 | ISRE-luciferase fold induction; zcytoR19-overexpressing 293 cells; Zcyto21 100 ng/ml; + IL10Rb neutralizing antibody (2.5 ug/ml) (fold induction) [1]: 31 | ISRE-luciferase fold induction; zcytoR19-overexpressing 293 cells; Zcyto21 100 ng/ml; no antibody (fold induction) [1]: 45 | ISRE-luciferase fold induction; 293 cells transfected with ISRE-Luc./Zcytor19; Zcyto21 125ng/ml (fold induction) [2]: 108 | ISRE-luciferase fold induction; BHK cells transfected with zcytoR19 alone; zcyto21 0.001 ng/ml (fold induction) [2]: 1.3 | ISRE-luciferase fold induction; BHK cells transfected with zcytoR19 alone; zcyto21 0.01 ng/ml (fold induction) [2]: 1.4 | ISRE-luciferase fold induction; BHK cells transfected with zcytoR19 alone; zcyto21 0.1 ng/ml (fold induction) [2]: 1.4 | ISRE-luciferase fold induction; BHK cells transfected with zcytoR19 alone; zcyto21 1 ng/ml (fold induction) [2]: 2 | ISRE-luciferase fold induction; BHK cells transfected with zcytoR19 alone; zcyto21 10 ng/ml (fold induction) [2]: 2.4 | ISRE-luciferase fold induction; BHK cells transfected with zcytoR19 alone; zcyto21 100 ng/ml (fold induction) [2]: 2.6 | ISRE-luciferase fold induction; BHK cells transfected with zcytoR19 alone; zcyto21 1000 ng/ml (fold induction) [2]: 3.3 | ISRE-luciferase fold induction; BHK cells transfected with zcytoR19 and IL10Rb (CRF2-4); zcyto21 0.001 ng/ml (fold induction) [3]: 1.3 | ISRE-luciferase fold induction; BHK cells transfected with zcytoR19 and IL10Rb (CRF2-4); zcyto21 0.01 ng/ml (fold induction) [3]: 1.6 | ISRE-luciferase fold induction; BHK cells transfected with zcytoR19 and IL10Rb (CRF2-4); zcyto21 0.1 ng/ml (fold induction) [3]: 2.2 | ISRE-luciferase fold induction; BHK cells transfected with zcytoR19 and IL10Rb (CRF2-4); zcyto21 1 ng/ml (fold induction) [3]: 2.5 | ISRE-luciferase fold induction; BHK cells transfected with zcytoR19 and IL10Rb (CRF2-4); zcyto21 10 ng/ml (fold induction) [3]: 2.6 | ISRE-luciferase fold induction; BHK cells transfected with zcytoR19 and IL10Rb (CRF2-4); zcyto21 100 ng/ml (fold induction) [3]: 2.5 | ISRE-luciferase fold induction; BHK cells transfected with zcytoR19 and IL10Rb (CRF2-4); zcyto21 1000 ng/ml (fold induction) [3]: 2.2
